In paper PMC13345634, “Dynamic assembly of malate dehydrogenase–citrate synthase multienzyme complex in the mitochondria” (eLife, 2026):

T1: recombinant MDH1 (without the mitochondrial targeting signal, C-terminal 6x His tag), fluorescently labeled (S. cerevisiae, UniProt P17505 18-334, fluorescent label (Protein Labeling Kit RED-NHS 2nd Generation))
T1 chain: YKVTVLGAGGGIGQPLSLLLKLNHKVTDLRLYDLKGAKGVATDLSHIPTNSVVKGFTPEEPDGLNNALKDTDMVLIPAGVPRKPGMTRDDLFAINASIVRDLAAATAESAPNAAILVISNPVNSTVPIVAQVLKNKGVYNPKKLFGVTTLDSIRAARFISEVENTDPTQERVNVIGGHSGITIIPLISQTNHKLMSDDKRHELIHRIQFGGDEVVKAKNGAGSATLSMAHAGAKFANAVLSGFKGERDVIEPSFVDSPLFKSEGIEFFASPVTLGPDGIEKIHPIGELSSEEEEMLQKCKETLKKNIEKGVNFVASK

T2: recombinant CIT1 (without the mitochondrial targeting signal, C-terminal 6x His tag) (S. cerevisiae, UniProt P00890 38-479)
T2 construct: By the primers and the NdeI/XhoI sites of pET21b the chain should begin with an added Met and carry LE before the His6; also called recombinant yeast CIT1; pET-cit1; source: E. coli BL21 (DE3), pET21b, purified (Ni-NTA His SpinTrap columns)
T2 sequence (looked up): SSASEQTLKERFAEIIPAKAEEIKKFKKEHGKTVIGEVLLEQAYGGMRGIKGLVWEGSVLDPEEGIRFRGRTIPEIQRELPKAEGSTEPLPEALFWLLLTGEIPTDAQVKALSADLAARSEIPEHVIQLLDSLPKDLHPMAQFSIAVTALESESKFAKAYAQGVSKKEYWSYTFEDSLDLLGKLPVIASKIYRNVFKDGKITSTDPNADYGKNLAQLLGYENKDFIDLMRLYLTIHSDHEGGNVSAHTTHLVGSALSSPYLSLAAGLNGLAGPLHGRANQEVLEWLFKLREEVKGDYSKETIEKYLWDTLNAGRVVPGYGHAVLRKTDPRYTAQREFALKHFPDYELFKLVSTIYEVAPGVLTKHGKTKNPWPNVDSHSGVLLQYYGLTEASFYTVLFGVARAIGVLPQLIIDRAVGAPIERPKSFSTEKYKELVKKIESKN

B1: recombinant CIT1 (without the mitochondrial targeting signal, C-terminal 6x His tag) (enzyme)
chain: T2 sequence (looked up)
B2: recombinant MDH1 (without the mitochondrial targeting signal, C-terminal 6x His tag), fluorescently labeled (enzyme, S. cerevisiae, UniProt P17505 18-334, looked up)
chain: T1 chain
modifications: fluorescent label (Protein Labeling Kit RED-NHS 2nd Generation)
notes: By the primers and the NdeI/XhoI sites of pET21b the chain should begin with an added Met and carry LE before the His6; also called recombinant yeast MDH1; labeled MDH1; source: E. coli BL21 (DE3), pET21b, purified (Ni-NTA His SpinTrap columns)

Legend:
[1] = target: T1, recombinant MDH1 (without the …); assay: MST; 10 mM fumarate
[2] = target: T1, recombinant MDH1 (without the …); assay: MST; pH 6.8
[3] = target: T1, recombinant MDH1 (without the …); assay: MST; 10 mM malate
[4] = target: T1, recombinant MDH1 (without the …); assay: MST; control (no metabolite)
[5] = target: T2, recombinant CIT1 (without the …); assay: MST; fluorescently labeled MDH1 as the target, CIT1 as the ligand (two-fold serial dilution of 80 µM, 16 concentrations); Monolith NT.115, room temperature; 50 mM Tris, 150 mM NaCl, 10 mM MgCl2, 5 mM DTT, 0.05% Tween-20; pH 6.4; settings: both partners purified
[6] = target: T2, recombinant CIT1 (without the …); assay: MST; fluorescently labeled MDH1 as the target, CIT1 as the ligand (two-fold serial dilution of 80 µM, 16 concentrations); Monolith NT.115, room temperature; 50 mM Tris, 150 mM NaCl, 10 mM MgCl2, 5 mM DTT, 0.05% Tween-20; pH 6.0; settings: both partners purified
[7] = target: T2, recombinant CIT1 (without the …); assay: MST; fluorescently labeled MDH1 as the target, CIT1 as the ligand (two-fold serial dilution of 80 µM, 16 concentrations); Monolith NT.115, room temperature; 50 mM Tris, 150 mM NaCl, 10 mM MgCl2, 5 mM DTT, 0.05% Tween-20; pH 7.2; settings: both partners purified

Row | Binder | Kd [1] | Kd [2] | Kd [3] | Kd [4] | Kd [5] | Kd [6] | Kd [7]
1 | B1 | 288 nM | 2720 nM | 367 nM | 6070 nM |  |  | 
2 | B2 |  |  |  |  | 223 nM | 33 nM | 3480 nM
